Results as given in patent US20230250154A1 (CYTONICS, published 2023).

T1: Cathepsin G (UniProt P08311 21-244)
T1 sequence (looked up): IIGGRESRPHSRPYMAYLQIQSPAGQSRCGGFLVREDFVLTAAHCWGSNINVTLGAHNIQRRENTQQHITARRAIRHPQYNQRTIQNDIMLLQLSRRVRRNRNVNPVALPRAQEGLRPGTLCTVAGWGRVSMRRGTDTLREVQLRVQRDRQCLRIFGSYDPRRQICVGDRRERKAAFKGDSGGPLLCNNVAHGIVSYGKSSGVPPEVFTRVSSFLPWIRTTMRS

T2: MMP7 (UniProt P09237 95-267, limits assumed)
T2 sequence (looked up): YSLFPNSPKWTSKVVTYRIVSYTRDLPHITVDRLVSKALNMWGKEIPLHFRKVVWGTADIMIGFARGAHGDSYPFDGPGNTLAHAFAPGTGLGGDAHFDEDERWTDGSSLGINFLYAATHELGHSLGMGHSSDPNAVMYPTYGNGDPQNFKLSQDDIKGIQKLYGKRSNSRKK

T3: MMP1 (human, UniProt P03956 100-469, limits assumed)
T3 sequence (looked up): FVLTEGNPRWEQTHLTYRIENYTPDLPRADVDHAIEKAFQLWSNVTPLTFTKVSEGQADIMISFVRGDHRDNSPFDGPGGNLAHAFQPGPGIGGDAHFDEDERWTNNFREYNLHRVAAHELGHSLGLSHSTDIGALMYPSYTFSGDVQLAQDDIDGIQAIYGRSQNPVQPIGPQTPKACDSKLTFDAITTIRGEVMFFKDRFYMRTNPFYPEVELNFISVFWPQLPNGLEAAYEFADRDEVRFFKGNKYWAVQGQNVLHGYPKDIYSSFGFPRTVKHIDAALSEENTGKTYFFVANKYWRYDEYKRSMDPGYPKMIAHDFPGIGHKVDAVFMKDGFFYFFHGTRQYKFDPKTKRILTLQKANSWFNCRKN

T4: ADAMTS5 (human, UniProt Q9UNA0 262-622, limits assumed)
T4 sequence (looked up): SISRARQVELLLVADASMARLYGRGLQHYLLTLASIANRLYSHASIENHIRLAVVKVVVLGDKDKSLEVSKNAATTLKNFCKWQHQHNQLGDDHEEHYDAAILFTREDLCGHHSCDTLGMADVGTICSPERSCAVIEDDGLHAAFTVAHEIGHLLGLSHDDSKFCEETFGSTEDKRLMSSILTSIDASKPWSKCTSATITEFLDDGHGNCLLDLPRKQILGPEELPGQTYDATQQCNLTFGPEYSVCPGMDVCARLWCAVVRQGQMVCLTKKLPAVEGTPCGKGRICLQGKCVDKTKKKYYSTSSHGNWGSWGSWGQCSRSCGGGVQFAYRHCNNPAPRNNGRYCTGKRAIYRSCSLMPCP

T5: ADAMTS4 (human, UniProt O75173 213-685, limits assumed)
T5 sequence (looked up): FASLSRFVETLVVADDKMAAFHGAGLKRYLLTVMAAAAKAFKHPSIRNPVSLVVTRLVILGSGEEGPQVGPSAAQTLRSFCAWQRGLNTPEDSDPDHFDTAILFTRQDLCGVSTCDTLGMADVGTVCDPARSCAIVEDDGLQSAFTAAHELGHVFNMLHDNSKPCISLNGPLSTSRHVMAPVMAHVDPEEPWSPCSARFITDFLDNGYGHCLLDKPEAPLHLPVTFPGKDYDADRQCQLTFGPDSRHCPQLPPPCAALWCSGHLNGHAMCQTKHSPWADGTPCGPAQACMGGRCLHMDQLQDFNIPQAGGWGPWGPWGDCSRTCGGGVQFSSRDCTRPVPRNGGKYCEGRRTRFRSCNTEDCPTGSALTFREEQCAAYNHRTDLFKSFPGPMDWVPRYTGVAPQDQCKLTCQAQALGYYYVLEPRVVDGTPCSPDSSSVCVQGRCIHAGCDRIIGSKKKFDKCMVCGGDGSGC

T6: MMP2 (human, UniProt P08253 110-660, limits assumed)
T6 sequence (looked up): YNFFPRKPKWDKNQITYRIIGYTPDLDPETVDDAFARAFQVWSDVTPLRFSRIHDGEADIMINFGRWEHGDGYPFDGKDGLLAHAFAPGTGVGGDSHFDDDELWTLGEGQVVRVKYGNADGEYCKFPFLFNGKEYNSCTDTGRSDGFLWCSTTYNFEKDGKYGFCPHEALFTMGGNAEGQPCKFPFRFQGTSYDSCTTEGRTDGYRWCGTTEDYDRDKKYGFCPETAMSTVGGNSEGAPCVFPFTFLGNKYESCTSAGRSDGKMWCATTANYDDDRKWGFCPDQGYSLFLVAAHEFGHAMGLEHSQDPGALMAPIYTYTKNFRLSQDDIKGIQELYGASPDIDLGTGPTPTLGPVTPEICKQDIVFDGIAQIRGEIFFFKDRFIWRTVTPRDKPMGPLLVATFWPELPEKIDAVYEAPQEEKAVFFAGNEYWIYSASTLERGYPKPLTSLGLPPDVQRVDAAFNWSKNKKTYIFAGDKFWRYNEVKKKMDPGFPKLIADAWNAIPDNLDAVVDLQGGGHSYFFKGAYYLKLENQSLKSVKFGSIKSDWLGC

B1: Variant A2M, bait region SEQ ID NO 25 (other)
chain: SVSGKPQYMVLVPSLLHTETTEKGCVLLSYLNETVTVSASLESVRGNRSLFTDLEAENDVLHCVAFAVPKSSSNEEVMFLTVQVKGPTQEFKKRTTVMVKNEDSLVFVQTDKSIYKPGQTVKFRVVSMDENFHPLNELIPLVYIQDPKGNRIAQWQSFQLEGGLKQFSFPLSSEPFQGSYKVVVQKKSGGRTEHPFTVEEFVLPKFEVQVTVPKIITILEEEMNVSVCGLYTYGKPVPGHVTVSICRKYSDASDCHGEDSQAFCEKFSGQLNSHGCFYQQVKTKVFQLKRKEYEMKLHTEAQIQEEGTVVELTGRQSSEITRTITKLSFVKVDSHFRQGIPFFGQVRLVDGKGVPIPNKVIFIRGNEANYYSNATTDEHGLVQFSINTTNVMGTSLTVRVNYKDRSPCYGYQWVSEEHEEAHHTAYLVFSPSKSFVHLEPMSHELPCGHTQTVQAHYILNGGTLLGLKKLSFYYLIMAKGGIVRTGTHGLLVKQEDMKGHFSISIPVKSDIAPVARLLIYAVLPTGDVIGDSAKYDVENCLANKVDLSFSPSQSLPASHAHLRVTAAPQSVCALRAVDQSVLLMKPDAELSASSVYNLLPEKDLTGFPGPLNDQDDEDCINRHNVYINGITYTPVSSTNEKDMYSFLEDMGLKAFTNSKIRKPKMCPQLEHGPEGEGEGEGIPENFYGVSEDLYTASELEGRGSVEEPHTKLRKYFPETWIWDLVVVNSAGVAEVGVTVPDTITEWKAGAFCLSEDAGLGISSTASLRAFQPFFVELTMPYSVIRGEAFTLKATVLNYLPKCIRVSVQLEASPAFLAVPVEKEQAPHCICANGRQTVSWAVTPKSLGNVNFTVSAEALESQELCGTEVPSVPEHGRKDTVIKPLLVEPEGLEKETTFNSLLCPSGGEVSEELSLKLPPNVVEESARASVSVLGDILGSAMQNTQNLLQMPYGCGEQNMVLFAPNIYVLDYLNETQQLTPEIKSKAIGYLNTGYQRQLNYKHYDGSYSTFGERYGRNQGNTWLTAFVLKTFAQARAYIFIDEAHITQALIWLSQRQKDNGCFRSSGSLLNNAIKGGVEDEVTLSAYITIALLEIPLTVTHPVVRNALFCLESAWKTAQEGDHGSHVYTKALLAYAFALAGNQDKRKEVLKSLNEEAVKKDNSVHWERPQKPKAPVGHFYEPQAPSAEVEMTSYVLLAYLTAQPAPTSEDLTSATNIVKWITKQQNAQGGFSSTQDTVVALHALSKYGAATFTRTGKAAQVTIQSSGTFSSKFQVDNNNRLLLQQVSLPELPGEYSMKVTGEGCVYLQTSLKYNILPEKEEFPFALGVQTLPQTCDEPKAHTSFQISLSVSYTGSRSASNMAIVDVKMVSGFIPLKPTVKMLERSNHVSRTEVSSNHVLIYLDKVSNQTLSLFFTVLQDVPVRDLKPAIVKVYDYYETDEFAIAEYNAPCSKDLGNADYKDDDDKGASHHHHHH
B2: Variant A2M, bait region SEQ ID NO 28 (other)
chain: SVSGKPQYMVLVPSLLHTETTEKGCVLLSYLNETVTVSASLESVRGNRSLFTDLEAENDVLHCVAFAVPKSSSNEEVMFLTVQVKGPTQEFKKRTTVMVKNEDSLVFVQTDKSIYKPGQTVKFRVVSMDENFHPLNELIPLVYIQDPKGNRIAQWQSFQLEGGLKQFSFPLSSEPFQGSYKVVVQKKSGGRTEHPFTVEEFVLPKFEVQVTVPKIITILEEEMNVSVCGLYTYGKPVPGHVTVSICRKYSDASDCHGEDSQAFCEKFSGQLNSHGCFYQQVKTKVFQLKRKEYEMKLHTEAQIQEEGTVVELTGRQSSEITRTITKLSFVKVDSHFRQGIPFFGQVRLVDGKGVPIPNKVIFIRGNEANYYSNATTDEHGLVQFSINTTNVMGTSLTVRVNYKDRSPCYGYQWVSEEHEEAHHTAYLVFSPSKSFVHLEPMSHELPCGHTQTVQAHYILNGGTLLGLKKLSFYYLIMAKGGIVRTGTHGLLVKQEDMKGHFSISIPVKSDIAPVARLLIYAVLPTGDVIGDSAKYDVENCLANKVDLSFSPSQSLPASHAHLRVTAAPQSVCALRAVDQSVLLMKPDAELSASSVYNLLPEKDLTGFPGPLNDQDDEDCINRHNVYINGITYTPVSSTNEKDMYSFLEDMGLKAFTNSKIRKPKMCPQLEQYEMHGPEGEGEGEFRAAPFLTAIPENFFGVSEDLVVQISELEGRGSPHTKLRKYFPETWIWDLVVVNSAGVAEVGVTVPDTITEWKAGAFCLSEDAGLGISSTASLRAFQPFFVELTMPYSVIRGEAFTLKATVLNYLPKCIRVSVQLEASPAFLAVPVEKEQAPHCICANGRQTVSWAVTPKSLGNVNFTVSAEALESQELCGTEVPSVPEHGRKDTVIKPLLVEPEGLEKETTFNSLLCPSGGEVSEELSLKLPPNVVEESARASVSVLGDILGSAMQNTQNLLQMPYGCGEQNMVLFAPNIYVLDYLNETQQLTPEIKSKAIGYLNTGYQRQLNYKHYDGSYSTFGERYGRNQGNTWLTAFVLKTFAQARAYIFIDEAHITQALIWLSQRQKDNGCFRSSGSLLNNAIKGGVEDEVTLSAYITIALLEIPLTVTHPVVRNALFCLESAWKTAQEGDHGSHVYTKALLAYAFALAGNQDKRKEVLKSLNEEAVKKDNSVHWERPQKPKAPVGHFYEPQAPSAEVEMTSYVLLAYLTAQPAPTSEDLTSATNIVKWITKQQNAQGGFSSTQDTVVALHALSKYGAATFTRTGKAAQVTIQSSGTFSSKFQVDNNNRLLLQQVSLPELPGEYSMKVTGEGCVYLQTSLKYNILPEKEEFPFALGVQTLPQTCDEPKAHTSFQISLSVSYTGSRSASNMAIVDVKMVSGFIPLKPTVKMLERSNHVSRTEVSSNHVLIYLDKVSNQTLSLFFTVLQDVPVRDLKPAIVKVYDYYETDEFAIAEYNAPCSKDLGNADYKDDDDKGASHHHHHH

How the values were obtained:
Experiment in all cases: cell-based or functional assay
MMP8 = MMP8 (human, UniProt P22894 101-467, limits assumed)
Cathepsin G = target: T1, Cathepsin G
MMP7 = target: T2, MMP7
MMP1 = target: T3, MMP1
MMP13 = MMP13 (human, UniProt P45452 104-471, limits assumed)
ADAMTS5 = target: T4, ADAMTS5
ADAMTS4 = target: T5, ADAMTS4
MMP3 = MMP3 (human, UniProt P08254 100-477, limits assumed)
Elastase = target: Elastase
MMP9 = MMP9 (human, UniProt P14780 107-707, limits assumed)
MMP2 = target: T6, MMP2

Sequence of MMP3 (P08254 100-477 limits assumed): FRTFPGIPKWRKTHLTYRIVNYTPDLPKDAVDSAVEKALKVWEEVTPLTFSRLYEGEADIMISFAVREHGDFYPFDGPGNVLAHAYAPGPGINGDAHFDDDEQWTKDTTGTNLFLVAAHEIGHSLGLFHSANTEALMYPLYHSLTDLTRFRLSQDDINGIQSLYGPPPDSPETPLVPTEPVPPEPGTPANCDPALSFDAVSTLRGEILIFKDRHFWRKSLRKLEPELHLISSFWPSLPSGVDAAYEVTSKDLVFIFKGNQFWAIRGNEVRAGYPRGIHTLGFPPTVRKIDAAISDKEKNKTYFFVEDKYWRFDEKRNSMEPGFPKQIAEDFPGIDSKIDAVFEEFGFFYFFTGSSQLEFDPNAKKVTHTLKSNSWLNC
Sequence of MMP9 (P14780 107-707 limits assumed): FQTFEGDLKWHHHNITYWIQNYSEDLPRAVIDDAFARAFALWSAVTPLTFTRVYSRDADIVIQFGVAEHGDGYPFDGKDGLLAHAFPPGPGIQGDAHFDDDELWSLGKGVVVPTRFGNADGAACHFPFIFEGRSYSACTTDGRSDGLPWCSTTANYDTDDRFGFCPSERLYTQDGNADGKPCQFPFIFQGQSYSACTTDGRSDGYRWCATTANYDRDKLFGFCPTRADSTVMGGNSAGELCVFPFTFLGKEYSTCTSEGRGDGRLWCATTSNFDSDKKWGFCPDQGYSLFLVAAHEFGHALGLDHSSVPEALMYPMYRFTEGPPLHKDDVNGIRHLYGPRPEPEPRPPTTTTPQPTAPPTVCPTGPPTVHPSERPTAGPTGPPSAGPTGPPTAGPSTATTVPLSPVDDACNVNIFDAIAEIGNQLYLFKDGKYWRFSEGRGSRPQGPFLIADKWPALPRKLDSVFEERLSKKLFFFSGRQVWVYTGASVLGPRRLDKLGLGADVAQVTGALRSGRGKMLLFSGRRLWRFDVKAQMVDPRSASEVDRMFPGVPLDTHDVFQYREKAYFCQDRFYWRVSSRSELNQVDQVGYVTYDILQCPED
Sequence of MMP8 (P22894 101-467 limits assumed): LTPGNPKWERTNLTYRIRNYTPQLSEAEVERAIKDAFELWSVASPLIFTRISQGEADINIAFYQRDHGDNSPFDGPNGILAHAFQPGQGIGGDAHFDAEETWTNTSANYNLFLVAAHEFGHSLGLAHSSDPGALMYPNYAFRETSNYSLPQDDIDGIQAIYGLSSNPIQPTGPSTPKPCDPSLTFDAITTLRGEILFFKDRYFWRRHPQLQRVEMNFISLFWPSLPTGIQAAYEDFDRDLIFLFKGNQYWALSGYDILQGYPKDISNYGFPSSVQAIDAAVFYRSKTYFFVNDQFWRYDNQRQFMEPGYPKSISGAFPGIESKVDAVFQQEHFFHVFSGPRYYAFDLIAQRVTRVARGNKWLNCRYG

Row | Binder | Protease Inhibition (% of WT) (MMP8) | Protease Inhibition (% of WT) (Cathepsin G) | Protease Inhibition (% of WT) (MMP7) | Protease Inhibition (% of WT) (MMP1) | Protease Inhibition (% of WT) (MMP13) | Protease Inhibition (% of WT) (ADAMTS5) | Protease Inhibition (% of WT) (ADAMTS4) | Protease Inhibition (% of WT) (MMP3) | Protease Inhibition (% of WT) (Elastase) | Protease Inhibition (% of WT) (MMP9) | Protease Inhibition (% of WT) (MMP2)
1 | B1 | 36 % of WT | 117 % of WT | 140 % of WT | 101 % of WT | 138 % of WT | 376 % of WT | 144 % of WT | 86 % of WT | 100 % of WT | 25 % of WT | 43 % of WT
2 | B2 | 38 % of WT | 69 % of WT | 94 % of WT | 67 % of WT | 90 % of WT | 398 % of WT | 180 % of WT | 129 % of WT | 75 % of WT | 14 % of WT | 36 % of WT
